The assay addresses collagen type XI (UniProt P12107 36-1563; P13942 28-1736, hydroxyproline/hydroxylysine expected in native collagen; preparation and processing not stated; alpha3(XI) taken as COL2A1 product). In words: ELISA; collagen model peptide or collagen XI coated; COMP or TSP-4 at indicated concentrations in TBS-T with 0.25% BSA, 1 h, room temperature; detected with anti-COMP or anti-TSP-4 antibody; four-parameter logistic fit; apparent KD. Conditions: both partners purified.

B1: cartilage oligomeric matrix protein (COMP), wild type, pentameric (natural protein)
chain: not shown
notes: cartilage oligomeric matrix protein (COMP, TSP-5); residue numbers Asp593-Asp595 as in PDB 3FBY; also called COMP wt; TSP-5; source: HEK293 (EBNA), pCEP vector, serum-free supernatant, purified (Strep-Tactin)
On to B1, for which the Kd was determined as 20 nM.

Values taken from paper PMC6249252, “COMP and TSP-4 interact specifically with the novel GXKGHR motif only found in fibrillar collagens” (Scientific Reports, 2018).
